Experimental findings from paper PMC10239980, “A new portable toluidine blue/aptamer complex-on-polyethyleneimine-coated gold nanoparticles-based sensor for label-free electrochemical detection of alpha-fetoprotein” are described below.

In this data set the target is T1, Alpha-fetoprotein (AFP) (UniProt P02771 19-609).
T1 sequence: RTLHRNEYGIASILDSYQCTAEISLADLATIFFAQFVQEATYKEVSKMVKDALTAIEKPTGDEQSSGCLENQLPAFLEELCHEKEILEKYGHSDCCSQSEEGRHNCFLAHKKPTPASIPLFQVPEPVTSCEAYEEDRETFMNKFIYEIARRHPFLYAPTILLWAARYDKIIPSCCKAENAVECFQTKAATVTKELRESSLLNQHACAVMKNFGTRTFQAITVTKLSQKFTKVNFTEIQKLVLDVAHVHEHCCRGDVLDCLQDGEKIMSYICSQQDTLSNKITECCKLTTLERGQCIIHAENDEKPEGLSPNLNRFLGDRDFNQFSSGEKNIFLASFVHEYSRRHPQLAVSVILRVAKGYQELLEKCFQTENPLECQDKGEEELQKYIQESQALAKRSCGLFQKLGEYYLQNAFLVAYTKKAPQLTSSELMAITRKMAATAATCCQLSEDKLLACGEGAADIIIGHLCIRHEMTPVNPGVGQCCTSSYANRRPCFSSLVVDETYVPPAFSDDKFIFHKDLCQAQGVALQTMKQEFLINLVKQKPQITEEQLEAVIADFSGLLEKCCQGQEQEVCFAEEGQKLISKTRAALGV
The data set is described as follows: electrochemical aptasensor (DPV, CV, EIS); toluidine blue, BSA-blocked PEI-AuNPs electrode; 50 ng/mL AFP lowers DPV current ca. 39 to 26 uA; 10 mM sodium phosphate buffer pH 7.0, 30 min incubation at room temperature; CV in 10 mM PBS pH 7.4 with 5 mM [Fe(CN)6]3-. Conditions: protein: commercial.

B1: AFP-specific aptamer (75-mer) (ssDNA)
DNA: GTGACGCTCCTAACGCTGACTCAGGTGCAGTTCTCGACTCGGTCTTGATGTGGGTCCTGTCCGTCCGAACCAATC
For B1, the binding result is “binds”.
